Assay results as given in US5773001 (American Cyanamid Company, dated 1998).
Read-outs that look alike come from different tables or passages of the source.

What was measured:
CD33 antigen (human) [1] = molecular target: CD33 antigen (human) (UniProt P20138)
CD33 antigen (human) [2] = molecular target: CD33 antigen (human) (UniProt P20138); experiment: competition with 125I-labelled native antibody on HEL 92.1.7 cells; IC50 (reference) / IC50 (sample)
CD33 antigen (human) [3] = molecular target: CD33 antigen (human) (UniProt P20138); remark: listed apart in the source
CD33 antigen (human) [4] = molecular target: CD33 antigen (human) (UniProt P20138); remark: listed apart in the source
CD33 antigen (human) [5] = molecular target: CD33 antigen (human) (UniProt P20138); remark: listed apart in the source
CD33 antigen (human) [6] = molecular target: CD33 antigen (human) (UniProt P20138); remark: listed apart in the source
CD33 antigen (human) [7] = molecular target: CD33 antigen (human) (UniProt P20138); remark: listed apart in the source
CD33 antigen (human) [8] = molecular target: CD33 antigen (human) (UniProt P20138); remark: listed apart in the source
CD33 antigen (human) [9] = molecular target: CD33 antigen (human) (UniProt P20138); remark: listed apart in the source
CD33 antigen (human) [10] = molecular target: CD33 antigen (human) (UniProt P20138); remark: listed apart in the source
[11] = molecular target: polyepithelial mucin (PEM) antigen on cells (human) (UniProt P15941)
polyepithelial mucin (PEM) antigen on cells (human), sequence (P15941 24-1255): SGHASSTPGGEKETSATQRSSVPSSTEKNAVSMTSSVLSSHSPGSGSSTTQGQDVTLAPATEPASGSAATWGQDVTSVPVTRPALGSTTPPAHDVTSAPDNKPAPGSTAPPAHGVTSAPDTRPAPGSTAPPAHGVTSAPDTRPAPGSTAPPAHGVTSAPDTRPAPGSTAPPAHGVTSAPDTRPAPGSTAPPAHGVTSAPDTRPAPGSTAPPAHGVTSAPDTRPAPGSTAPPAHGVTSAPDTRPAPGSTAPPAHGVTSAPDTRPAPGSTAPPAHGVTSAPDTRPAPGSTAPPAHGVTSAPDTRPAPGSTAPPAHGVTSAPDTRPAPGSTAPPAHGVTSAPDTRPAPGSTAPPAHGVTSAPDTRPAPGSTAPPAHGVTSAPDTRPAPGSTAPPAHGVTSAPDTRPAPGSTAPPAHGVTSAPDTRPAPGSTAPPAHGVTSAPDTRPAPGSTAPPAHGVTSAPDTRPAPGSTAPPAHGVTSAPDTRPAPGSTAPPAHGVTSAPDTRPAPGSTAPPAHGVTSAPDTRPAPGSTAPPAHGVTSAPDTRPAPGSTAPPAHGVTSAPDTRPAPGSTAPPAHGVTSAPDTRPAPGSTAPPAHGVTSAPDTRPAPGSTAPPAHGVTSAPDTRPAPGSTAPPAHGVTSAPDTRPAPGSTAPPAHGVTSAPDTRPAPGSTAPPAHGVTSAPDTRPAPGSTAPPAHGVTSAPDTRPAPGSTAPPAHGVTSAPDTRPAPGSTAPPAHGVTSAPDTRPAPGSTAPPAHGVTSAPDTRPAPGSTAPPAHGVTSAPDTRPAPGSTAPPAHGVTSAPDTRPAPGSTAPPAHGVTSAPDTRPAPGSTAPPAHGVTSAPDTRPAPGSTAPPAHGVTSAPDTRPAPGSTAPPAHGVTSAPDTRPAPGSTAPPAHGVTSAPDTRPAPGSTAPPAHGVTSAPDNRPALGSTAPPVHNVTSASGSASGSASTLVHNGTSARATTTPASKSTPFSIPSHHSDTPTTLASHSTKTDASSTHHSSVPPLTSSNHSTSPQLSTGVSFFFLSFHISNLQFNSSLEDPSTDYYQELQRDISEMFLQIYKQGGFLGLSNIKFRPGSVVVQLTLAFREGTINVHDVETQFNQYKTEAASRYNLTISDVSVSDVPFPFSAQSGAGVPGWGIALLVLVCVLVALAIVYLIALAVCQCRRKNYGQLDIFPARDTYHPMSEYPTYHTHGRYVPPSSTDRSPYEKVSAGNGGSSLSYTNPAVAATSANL

[12] = molecular target: polyepithelial mucin (PEM) antigen on cells (human) (UniProt P15941); experiment: competition with 125I-labelled native antibody on A2780DDP cells; IC50 (reference) / IC50 (sample)

B1: Conjugate of 4-formylphenoxyacetic acid (1) condensed with Calicheamicin N-acetyl gamma dimethyl hydrazide and h-P67.6 (antibody, V domains shown)
VH: EVQLVQSGAEVKKPGSSVKVSCKASGYTITDSNIHWVRQAPGQSLEWIGYIYPYNGGTDYNQKFKNRATLTVDNPTNTAYMELSSLRSEDTDFYYCVNGNPWLAYWGQGTLVTVSS
VL: DIQLTQSPSTLSASVGDRVTITCRASESLDNYGIRFLTWFQQKPGKAPKLLMYAASNQGSGVPSRFSGSGSGTEFTLTISSLQPDDFATYYCQQTKEVPWSFGQGTKVEVKR
modifications: drug-linker amide on lysine side chains, sites not stated; drug-linker amide on lysine side chains, sites not stated
Ex vivo inhibition of colony formation (CD33 antigen (human) [1]): 95 % inhibition
In vitro IC50 (3H-thymidine incorporation) (CD33 antigen (human) [1]): 0.23 ng/mL
Rel. Affinity (CD33 antigen (human) [2]): 0.65

B2: Conjugate of 3-(2-oxoethoxy)benzoic acid (6) condensed with Calicheamicin N-acetyl gamma dimethyl hydrazide and h-P67.6 (antibody, V domains shown)
VH: EVQLVQSGAEVKKPGSSVKVSCKASGYTITDSNIHWVRQAPGQSLEWIGYIYPYNGGTDYNQKFKNRATLTVDNPTNTAYMELSSLRSEDTDFYYCVNGNPWLAYWGQGTLVTVSS
VL: DIQLTQSPSTLSASVGDRVTITCRASESLDNYGIRFLTWFQQKPGKAPKLLMYAASNQGSGVPSRFSGSGSGTEFTLTISSLQPDDFATYYCQQTKEVPWSFGQGTKVEVKR
modifications: drug-linker amide on lysine side chains, sites not stated; drug-linker amide on lysine side chains, sites not stated
In vitro IC50 (3H-thymidine incorporation) (CD33 antigen (human) [3]): 0.69 ng/mL
Rel. Affinity (CD33 antigen (human) [2]): 1.19

B3: Conjugate of 4-formylbenzoic acid (2) condensed with Calicheamicin N-acetyl gamma dimethyl hydrazide and h-P67.6 (antibody, V domains shown)
VH: EVQLVQSGAEVKKPGSSVKVSCKASGYTITDSNIHWVRQAPGQSLEWIGYIYPYNGGTDYNQKFKNRATLTVDNPTNTAYMELSSLRSEDTDFYYCVNGNPWLAYWGQGTLVTVSS
VL: DIQLTQSPSTLSASVGDRVTITCRASESLDNYGIRFLTWFQQKPGKAPKLLMYAASNQGSGVPSRFSGSGSGTEFTLTISSLQPDDFATYYCQQTKEVPWSFGQGTKVEVKR
modifications: drug-linker amide on lysine side chains, sites not stated; drug-linker amide on lysine side chains, sites not stated
Rel. Affinity (CD33 antigen (human) [2]): 0.99
Ex vivo inhibition of colony formation (CD33 antigen (human) [4]): 63 % inhibition
In vitro IC50 (3H-thymidine incorporation) (CD33 antigen (human) [4]): 4.8 ng/mL

B4: Conjugate of 4-(4-acetylphenoxy)butanoic acid (7) condensed with Calicheamicin N-acetyl gamma dimethyl hydrazide and h-P67.6 (antibody, V domains shown)
VH: EVQLVQSGAEVKKPGSSVKVSCKASGYTITDSNIHWVRQAPGQSLEWIGYIYPYNGGTDYNQKFKNRATLTVDNPTNTAYMELSSLRSEDTDFYYCVNGNPWLAYWGQGTLVTVSS
VL: DIQLTQSPSTLSASVGDRVTITCRASESLDNYGIRFLTWFQQKPGKAPKLLMYAASNQGSGVPSRFSGSGSGTEFTLTISSLQPDDFATYYCQQTKEVPWSFGQGTKVEVKR
modifications: drug-linker amide on lysine side chains, sites not stated; drug-linker amide on lysine side chains, sites not stated
Ex vivo inhibition of colony formation (CD33 antigen (human) [5]): 96 % inhibition
In vitro IC50 (3H-thymidine incorporation) (CD33 antigen (human) [5]): 0.098 ng/mL
Rel. Affinity (CD33 antigen (human) [2]): 0.75

B5: Conjugate of 4-(2-acetyl-1-naphthalenyl)oxy! butanoic acid (20) condensed with Calicheamicin N-acetyl gamma dimethyl hydrazide and h-P67.6 (antibody, V domains shown)
VH: EVQLVQSGAEVKKPGSSVKVSCKASGYTITDSNIHWVRQAPGQSLEWIGYIYPYNGGTDYNQKFKNRATLTVDNPTNTAYMELSSLRSEDTDFYYCVNGNPWLAYWGQGTLVTVSS
VL: DIQLTQSPSTLSASVGDRVTITCRASESLDNYGIRFLTWFQQKPGKAPKLLMYAASNQGSGVPSRFSGSGSGTEFTLTISSLQPDDFATYYCQQTKEVPWSFGQGTKVEVKR
modifications: drug-linker amide on lysine side chains, sites not stated; drug-linker amide on lysine side chains, sites not stated
Ex vivo inhibition of colony formation (CD33 antigen (human) [6]): 76 % inhibition
In vitro IC50 (3H-thymidine incorporation) (CD33 antigen (human) [6]): 0.061 ng/mL
Rel. Affinity (CD33 antigen (human) [2]): 0.5

B6: Conjugate of 4-acetylbenzenebutanoic acid (19) condensed with Calicheamicin N-acetyl gamma dimethyl hydrazide and h-P67.6 (antibody, V domains shown)
VH: EVQLVQSGAEVKKPGSSVKVSCKASGYTITDSNIHWVRQAPGQSLEWIGYIYPYNGGTDYNQKFKNRATLTVDNPTNTAYMELSSLRSEDTDFYYCVNGNPWLAYWGQGTLVTVSS
VL: DIQLTQSPSTLSASVGDRVTITCRASESLDNYGIRFLTWFQQKPGKAPKLLMYAASNQGSGVPSRFSGSGSGTEFTLTISSLQPDDFATYYCQQTKEVPWSFGQGTKVEVKR
modifications: drug-linker amide on lysine side chains, sites not stated; drug-linker amide on lysine side chains, sites not stated
Rel. Affinity (CD33 antigen (human) [2]): 0.5
Ex vivo inhibition of colony formation (CD33 antigen (human) [7]): 99 % inhibition
In vitro IC50 (3H-thymidine incorporation) (CD33 antigen (human) [7]): 0.012 ng/mL

B7: Conjugate of 4-(2-oxoethoxy)benzenepropanoic acid (5) condensed with Calicheamicin N-acetyl gamma dimethyl hydrazide and h-P67.6 (antibody, V domains shown)
VH: EVQLVQSGAEVKKPGSSVKVSCKASGYTITDSNIHWVRQAPGQSLEWIGYIYPYNGGTDYNQKFKNRATLTVDNPTNTAYMELSSLRSEDTDFYYCVNGNPWLAYWGQGTLVTVSS
VL: DIQLTQSPSTLSASVGDRVTITCRASESLDNYGIRFLTWFQQKPGKAPKLLMYAASNQGSGVPSRFSGSGSGTEFTLTISSLQPDDFATYYCQQTKEVPWSFGQGTKVEVKR
modifications: drug-linker amide on lysine side chains, sites not stated; drug-linker amide on lysine side chains, sites not stated
Rel. Affinity (CD33 antigen (human) [2]): 1.09
In vitro IC50 (3H-thymidine incorporation) (CD33 antigen (human) [8]): 2.22 ng/mL

B8: Conjugate of 4-(4-formylphenoxy)butanoic acid (9) condensed with Calicheamicin N-acetyl gamma dimethyl hydrazide and h-P67.6 (antibody, V domains shown)
VH: EVQLVQSGAEVKKPGSSVKVSCKASGYTITDSNIHWVRQAPGQSLEWIGYIYPYNGGTDYNQKFKNRATLTVDNPTNTAYMELSSLRSEDTDFYYCVNGNPWLAYWGQGTLVTVSS
VL: DIQLTQSPSTLSASVGDRVTITCRASESLDNYGIRFLTWFQQKPGKAPKLLMYAASNQGSGVPSRFSGSGSGTEFTLTISSLQPDDFATYYCQQTKEVPWSFGQGTKVEVKR
modifications: drug-linker amide on lysine side chains, sites not stated; drug-linker amide on lysine side chains, sites not stated
Ex vivo inhibition of colony formation (CD33 antigen (human) [9]): 98 % inhibition
In vitro IC50 (3H-thymidine incorporation) (CD33 antigen (human) [9]): 0.52 ng/mL
Rel. Affinity (CD33 antigen (human) [2]): 0.56

B9: Conjugate of 4-(4-acetylphenoxy)butanoic acid (7) condensed with calicheamicin gamma dimethyl hydrazide and h-P67.6 (antibody, V domains shown)
VH: EVQLVQSGAEVKKPGSSVKVSCKASGYTITDSNIHWVRQAPGQSLEWIGYIYPYNGGTDYNQKFKNRATLTVDNPTNTAYMELSSLRSEDTDFYYCVNGNPWLAYWGQGTLVTVSS
VL: DIQLTQSPSTLSASVGDRVTITCRASESLDNYGIRFLTWFQQKPGKAPKLLMYAASNQGSGVPSRFSGSGSGTEFTLTISSLQPDDFATYYCQQTKEVPWSFGQGTKVEVKR
modifications: drug-linker amide on lysine side chains, sites not stated; drug-linker amide on lysine side chains, sites not stated
In vitro IC50 (3H-thymidine incorporation) (CD33 antigen (human) [10]): 0.001 ng/mL
Rel. Affinity (CD33 antigen (human) [2]): 0.78

B10: Conjugate of 4-formyl-3-methoxyphenoxyacetic acid (3) condensed with Calicheamicin N-acetyl gamma dimethyl hydrazide and m-CT-M-01 (antibody, V domains shown)
VH: QIQLQQSGPELVKPGASVKISCKASGYTFTDYYINWMKQKPGQGLEWIGWIDPGSGNTKYNEKFKGKATLTVDTSSSTAYMQLSSLTSEDTAVYFCAREKTTYYYAMDYWGQGTSVTVSA
VL: DIVMTQAAPSVPVTPGESLSISCRSSKSLLHSNGDTFLYWFLQRPGQSPQLLIYRMSNLASGVPDRFSGSGSGTAFTLRVSRVEAEDVGVYYCMQHLEYPFTFGAGTKLELKR
modifications: drug-linker amide on lysine side chains, sites not stated; drug-linker amide on lysine side chains, sites not stated
In vitro IC50 (3H-thymidine incorporation) [11]: 5.6 ng/mL
Rel. Affinity [12]: 0.88
